Assay results reported in patent US20250042970A1 (AURINIA PHARMACEUTICALS, published 2025).
Changes are numbered by the printed parent chain. Ends that are not written are not given here. pIg22 = chimeric Ig-Fc consisting of the CH2 domain of PIg18 (IgG2 derivative) and the CH3 domain of IgG1

Assays:
FLAG-tagged human BAFF [1] = target: T1, FLAG-tagged human BAFF (human, UniProt Q9Y275 134-285, limits assumed); test: KinExA
T1 construct: used in BIACORE (Ex. 9) and KINEXA (Ex. 11); also called huBAFF
Experimental: (§1) Equilibrium measurements were performed using FLAG-tagged, recombinant huBAFF and huAPRIL ligands. Fixed ligand concentrations of human BAFF or human APRIL were incubated with serial dilutions of the variant BCMA ECD-Ig fusion polypeptides, and free ligand was detected in a KINEXA 3200 Instrument. variant BCMA ECD-Ig fusion polypeptides were first diluted in equilibration buffer (1×PBS, pH 7.4, 1 mg/ml BSA) to a range of concentrations from 10 nM to 100 fM. The linear portion of the dilution series was typically 2-fold. Ligands were diluted in equilibration buffer to fixed concentrations ranging from 5 to 20 pM and then incubated with the variant BCMA-Ig dilutions in total reaction volumes ranging from 4.5 to 15 ml. Samples were incubated at room temperature for 48-72 hours to reach equilibrium. For each data point, a fresh column of 850 μl of bead slurry coated with Variant BAv-238475-Ig was introduced into the KINEXA flow cell. Equilibrated samples ranging from 1 to 5 ml reaction volume were injected at a flow rate of 0.25 ml/min. […] The DyLight 649 fluorescent signal was detected using the red filter set (620/30 nanometer excitation filter, 670/40 nanometer emission filter, 645 nanometer dichroic filter) on the KinExA instrument and converted to a voltage signal that was directly proportional to the concentration of free ligand in the equilibrated sample.
(§2) The standard kinetic exclusion assays and data analyses described above were performed on protein preparations of various variant BCMA ECD-Ig fusion polypeptides, as well as Z-TACI-Ig and [S40G]huBCMA ECD-Ig fusion polypeptides. FIG. 8A, FIG. 8B, and Table 4 summarize the binding data for representative variant BCMA ECD-Ig polypeptides and controls in molar concentrations of huBAFF or huAPRIL determined by KINEXA binding assays.

[2] = target: T2, FLAG-tagged recombinant human APRIL (human, UniProt O75888 105-250); test: KinExA
T2 construct: KINEXA ligand; also called huAPRIL
T2 sequence: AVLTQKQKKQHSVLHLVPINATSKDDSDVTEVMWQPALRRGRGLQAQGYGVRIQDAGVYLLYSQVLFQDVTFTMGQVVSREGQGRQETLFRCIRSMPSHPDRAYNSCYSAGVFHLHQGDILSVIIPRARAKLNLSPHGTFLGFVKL
Experimental: as §1, §2

FLAG-tagged human BAFF [3] = target: T1, FLAG-tagged human BAFF; test: KinExA; remark: listed apart in the source
Experimental: as §1
(§3) Table 5 provides the selectivities of exemplary variant BCMA polypeptides with respect to BAFF and APRIL.

[4] = target: T2, FLAG-tagged recombinant human APRIL; test: KinExA; remark: listed apart in the source
Experimental: as §1, §3

FLAG-tagged human BAFF [5] = target: T1, FLAG-tagged human BAFF; test: BIACORE SPR
Experimental: (§4) For human BAFF, cynomolgus monkey APRIL, and mouse APRIL measurements, mouse monoclonal antibody (IgG1) anti-FLAG M2 (Sigma Aldrich, Cat. No. F1804) was immobilized on CM3 sensor chips (GE Healthcare, Cat. No. BR-1005-41) according to the manufacturer's protocol. Antibody was diluted to 30 μg/ml in immobilization buffer (10 mM pH 5±0.20; GE Healthcare; GE Healthcare, Catalog No. BR-1003-51). […] Unreacted sites were quenched with 35 μl of 1M ethanolamine-HCl, pH 8.5 (GE Healthcare, GE Healthcare, Cat. No. BR-1000-50). This procedure typically yielded 3,000-4,000 response units (RU) of coupled antibody.
(§5) The fusion polypeptides were diluted in HBS-EP buffer and flowed over ligand-coated sensor chips. The variant BCMA-Ig and surrogate control fusion proteins were injected at three concentrations (1.5 nM, 15 nM, and 150 nM at 30 μl/min for 2 minutes per association phase) in a single binding cycle, followed by a 20 minute incubation with HBS-EP buffer containing no protein at the same flow rate. A similar protocol was followed for Z-TACI-Ig, except that the injections were at 4.5 nM, 45 nM, and 450 nM.
(§6) Sequence optimization involved generating revertants from the variant BCMA ECD-Ig molecules using standard site-directed mutagenesis methods such as by SOEing as described herein above. Single as well as multiple revertants from twelve different variant-BCMA-pIg18 were generated, cloned in the pcDNA3.1 vector (Life Technologies, as described in Example 6), expressed and purified as described in Examples 6-8. The resulting proteins were assayed for their binding characteristics using Surface Plasmon Resonance as described in Example 9.

[6] = target: T3, FLAG-tagged cynomolgous APRIL (cynomolgus monkey, UniProt A0ACM8R0G4 110-250 (rhesus entry)); test: BIACORE SPR
T3 construct: FLAG-tagged, expressed with TPA signal peptide; also called cyAPRIL
T3 sequence: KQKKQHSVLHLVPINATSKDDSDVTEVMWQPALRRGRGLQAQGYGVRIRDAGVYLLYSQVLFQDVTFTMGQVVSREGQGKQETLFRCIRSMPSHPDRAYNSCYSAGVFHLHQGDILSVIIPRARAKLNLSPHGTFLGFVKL
Experimental: as §4, §5, §6

[7] = target: T3, FLAG-tagged cynomolgous APRIL; test: BIACORE SPR; NB = No binding
Experimental: as §4, §5
Using available information from the structures and published literature, several residues in BAv8-10 were targeted for substitution with conserved as well as non-conserved residues and their effect on BAFF and APRIL binding was assessed by BIACORE.

FLAG-tagged human BAFF [8] = target: T1, FLAG-tagged human BAFF; test: BIACORE SPR; remark: listed apart in the source
Experimental: as §4, §5
(§7) The various fusion proteins described above were expressed and purified as described previously (Examples 2 and 3 for the CET1019AS based plasmids and Examples 7 and 8 for the pcDNA based plasmids). […] The BAv9-1-Ig Fc proteins typically exist in solution as a dimeric fusion protein. The purified fusion proteins were assayed for binding activity using BIACORE (Example 9) and KINEXA (Example 11) assays.

[9] = target: T3, FLAG-tagged cynomolgous APRIL; test: BIACORE SPR; remark: listed apart in the source
Experimental: as §4, §5, §7

B1: Variant 9-3-Ig (Fc fusion, human)
chain: AGQCSQNEYFDHLVRACIPCQVRCSSNTPPLTCQRYCNAGVTNSVKGTNAERKSSVECPPSPAPPVAGPSVFLFPPKPKDTLMISRTPEVTCVVVDVSHEDPEVQFNWYVDGVEVHNAKTKPREEQFNSTFRVVSVLTVVHQDWLNGKEYKCKVSNKGLPAPIEKTISKTKGQPREPQVYTLPPSREEMTKNQVSLTCLVKGFYPSDISVEWESNGQPENNYKTTPPMLDSDGSFFLYSKLTVDKSRWQQGNVFSCSVMHEALHNHYTQKSLSLSPGK
notes: domain: Fc; also called BAv9-3
B1 was tested, and the “fold improvement over control” value (FLAG-tagged human BAFF [1]) was 2660 fold, the “fold improvement over control” value [2] was 0.008 fold and the “Selectivity for huBAFF (KD APRIL/KD BAFF)” value (from here on “Selectivity for huBAFF”) (FLAG-tagged human BAFF [3]) was 221 ratio. For the same binder, the “Selectivity for huAPRIL (KD BAFF/KD APRIL)” value (“Selectivity for huAPRIL” for short) [4] was 0.005 ratio.

B2: Variant 50237854-Ig (Fc fusion, human)
chain: B1 chain with V14I, Q21D, T28N, L31V
notes: domain: Fc; also called Parent 4
In the case of B2, the “fold improvement over control” value (FLAG-tagged human BAFF [5]) is reported as 5.5 fold and the “fold improvement over control” value [6] is reported as 0.3 fold.

B3: Variant 50237844-Ig (Fc fusion, human)
chain: B1 chain with N7S, F10Y, H12R, V14I, V22L, T28N, L31V, T32I
notes: domain: Fc; also called Parent 7
In the case of B3, the “fold improvement over control” value (FLAG-tagged human BAFF [5]) is reported as 5.5 fold and the “fold improvement over control” value [6] is reported as 0.5 fold.

B4: Variant 50237847-Ig (Fc fusion, human)
chain: B1 chain with F10Y, V14L, I18V, P19S, Q21H, T28N, L31A, T32I
notes: domain: Fc; also called Parent 3
For B4, the “fold improvement over control” value (FLAG-tagged human BAFF [5]) was 7.1 fold and the “fold improvement over control” value [6] was 0.4 fold.

B5: Variant 50234224-Ig (Fc fusion, human)
chain: B1 chain with E8D, F10Y, V14L, V22L, T28N
notes: domain: Fc; also called Parent 6
For B5, the “fold improvement over control” value (FLAG-tagged human BAFF [5]) was 4.2 fold and the “fold improvement over control” value [6] was 0.4 fold.

B6: BAv45-Ig (Fc fusion)
chain: AGQCSQNEYFDHLLRACIPCQVNCSSNTPPLTCQRYCNAGVTNSVKGTNA
notes: not shown: PIg18: human IgG2 Fc, Ser at Fc positions 4, 5, 11 (native Cys)
B6: no binding (tested: 150 nM) [7].

B7: BAv63-Ig (Fc fusion)
chain: B6 chain with L14A, N23R
notes: as for B6
B7: no binding (tested: 150 nM) [7].

B8: BAv79-Ig (Fc fusion)
chain: B6 chain with H12P, L14I, V22A, N23R
notes: as for B6
B8: no binding (tested: 150 nM) [7].

B9: BAv82-Ig (Fc fusion)
chain: B6 chain with H12P, L14V, V22A, N23R
notes: as for B6
B9: no binding (tested: 150 nM) [7].

B10: BAv85-5L-pIg22 (Fc fusion, human)
chain: AGQCSQNEYFDHLVRACIPCQARCSSNTPPLTCQRYCNAGVTNSVGGGGS-pIg22
modifications: not fully specified; cysteine pairing not given here
notes: domain: Fc; not shown: PIg22: chimeric Fc, CH2 domain of PIg18 (human IgG2 derivative) and CH3 domain of human IgG1
Work on B10 yielded a Kd (FLAG-tagged human BAFF [8]) of 6.76 pM and a Kd [9] of 784 pM.

B11: BAv74-Ig (Fc fusion)
chain: B6 chain with L14I, I18T, N23R
notes: as for B6
With B11 the Kd (FLAG-tagged human BAFF [1]) was 21.8 pM, the “fold improvement over control” value (FLAG-tagged human BAFF [1]) was 10.4 fold and the Kd [2] was 18.3 pM. For the same binder, the “fold improvement over control” value [2] was 0.00871 fold, the “Selectivity for huBAFF” value (FLAG-tagged human BAFF [3]) was 0.84 ratio and the “Selectivity for huAPRIL” value [4] was 1.19 ratio.

B12: BAv81-5L-pIg22 (Fc fusion, human)
chain: AGQCSQNEYFDPLVRACIPCQVRCSSNTPPLTCQRYCNAGVTNSVGGGGS-pIg22
modifications: not fully specified; cysteine pairing not given here
notes: as for B10
In the case of B12, the Kd (FLAG-tagged human BAFF [8]) is reported as 6.75 pM and the Kd [9] is reported as 2420 pM.

B13: BAv78-Ig (Fc fusion)
chain: B6 chain with V22Y, N23T
notes: as for B6
B13: no binding (tested: 150 nM) [7].

B14: BAv49-5L-pIg22 (Fc fusion, human)
chain: AGQCSQNEYFDPLIRACIPCQVRCSSNTPPLTCQRYCNAGVTNSVGGGGS
notes: as for B10
Work on B14 yielded a Kd (FLAG-tagged human BAFF [8]) of 14.1 pM and a Kd [9] of 1760 pM.

B15: BAv51-Ig (Fc fusion)
chain: B6 chain with L14I, V22A, N23R
notes: also called BAv51 (2)-Ig; not shown: PIg18: human IgG2 Fc, Ser at Fc positions 4, 5, 11 (native Cys)
With B15 the Kd (FLAG-tagged human BAFF [1]) was 0.192 pM, the “fold improvement over control” value (FLAG-tagged human BAFF [1]) was 1180 fold and the Kd [2] was 70.8 pM. The “fold improvement over control” value [2] was 0.00225 fold, the “Selectivity for huBAFF” value (FLAG-tagged human BAFF [3]) was 369 ratio and the “Selectivity for huAPRIL” value [4] was 0.003 ratio.

B16: BAv58-Ig (Fc fusion)
chain: B6 chain with H12S, L14V, A16H, V22I, N23R
notes: as for B6
For B16, the Kd (FLAG-tagged human BAFF [1]) was 0.24 pM, the “fold improvement over control” value (FLAG-tagged human BAFF [1]) was 940 fold and the Kd [2] was 31 pM. For the same binder, the “fold improvement over control” value [2] was 0.00514 fold, the “Selectivity for huBAFF” value (FLAG-tagged human BAFF [3]) was 129 ratio and the “Selectivity for huAPRIL” value [4] was 0.008 ratio.

B17: BAv83-5L-pIg22 (Fc fusion, human)
chain: AGQCSQNEYFDPLVRACIPCQIRCSSNTPPLTCQRYCNAGVTNSVGGGGS-pIg22
modifications: not fully specified; cysteine pairing not given here
notes: as for B10
B17 showed a Kd (FLAG-tagged human BAFF [8]) of 8.61 pM and a Kd [9] of 861 pM.

B18: BAv55-Ig (Fc fusion)
chain: B6 chain with L14G, N23R
notes: as for B6
B18: no binding (tested: 150 nM) [7].

B19: BAv64-Ig (Fc fusion)
chain: B6 chain with L14Y, N23R
notes: as for B6
B19: no binding (tested: 150 nM) [7].

B20: BAv60-Ig (Fc fusion)
chain: B6 chain with H12S, L14V, A16H, N23R
notes: also called BAv60 (2)-Ig; not shown: PIg18: human IgG2 Fc, Ser at Fc positions 4, 5, 11 (native Cys)
For B20, the Kd (FLAG-tagged human BAFF [1]) was 0.0537 pM, the “fold improvement over control” value (FLAG-tagged human BAFF [1]) was 4200 fold and the Kd [2] was 51.4 pM. The “fold improvement over control” value [2] was 0.0031 fold, the “Selectivity for huBAFF” value (FLAG-tagged human BAFF [3]) was 957 ratio and the “Selectivity for huAPRIL” value [4] was 0.001 ratio.

B21: BAv53-Ig (Fc fusion)
chain: B6 chain with H12S, L14I, A16H, N23R
notes: as for B6
With B21 the Kd (FLAG-tagged human BAFF [1]) was 0.462 pM, the “fold improvement over control” value (FLAG-tagged human BAFF [1]) was 488 fold and the Kd [2] was 34 pM. For the same binder, the “fold improvement over control” value [2] was 0.00469 fold, the “Selectivity for huBAFF” value (FLAG-tagged human BAFF [3]) was 73.6 ratio and the “Selectivity for huAPRIL” value [4] was 0.014 ratio.
